Measured values from publication PMC12207370, “Macrocyclic Peptide Probes for Immunomodulatory Protein CD59: Potent Modulators of Bacterial Toxin Activity and Antibody‐Dependent Cytotoxicity” (Angewandte Chemie (International Ed. in English), 2025).
Where two headings read alike, the source gives them in different places. Peptide text beside a SMILES is read from it.

Columns and labels:
CD59 = molecular target: T1, CD59 (Homo sapiens, UniProt P13987); experiment: SPR (Biacore S200) binding to immobilised biotinylated CD59
T1 construct: Recombinant soluble human CD59 with an additional C-terminal cysteine residue
T1 sequence (P13987 26-102 limits assumed): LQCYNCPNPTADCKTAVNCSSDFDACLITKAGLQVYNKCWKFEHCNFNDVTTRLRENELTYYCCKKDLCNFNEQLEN
Excerpt: To identify which of these peptides bound CD59 most tightly, we used a Biacore S200 surface plasmon resonance (SPR) platform to investigate CD59 affinity (Figure 2b), using a known protein binding partner of CD59 (rILYd4) as a benchmark. Four 13‐mer macrocyclic peptides and one 14‐mer macrocyclic peptide were identified with a dissociation constant (K D) lower than that of rILYd4. Considering their fourfold lower molecular weight, these peptides bind with up to 19‐fold greater efficiency compared to rILYd4 (Figure 2b).
Equipment: SPR analysis was performed on a Cytiva Biacore S200. All buffers were prepared using ultra-pure water from a Millipore Elix Q-Gard purification system. Solutions and buffers were filtered with a 0.22 μm filter and degassed prior to use. The assays were performed on Series S streptavidin (SA) sensor chip (Cytiva). PBS-P+ buffer 10X (0.2 M phosphate buffer with 27 mM KCl, 1.37 M NaCl and 0.5% Surfactant P20 (Tween 20)) was used for the preparation of the assay running buffer (PBS-P+ 1X).
Immobilisation of CD59-biotin: Biotinylated CD59 was immobilised on the surface of a SA chip by non-covalent capture (biotin streptavidin interaction) as per the manufacturer’s instructions. The system was initially primed with running buffer and normalised using BIAnormalizing solution (70% (w/w) glycerol) (Cytiva). Before immobilising the protein, the surface was conditioned with three consecutive one-minute injections of 1 M NaCl in 50 mM NaOH. Biotinylated CD59 (0.5 µg/mL in running buffer) was flowed over the protein (active) channel for different contact times to achieve different immobilisation levels (600–1200 RU). After each protein injection, the needle and injection loop were washed using 50% isopropanol in 1 M NaCl and 50 mM NaOH. A reference channel was prepared by similar treatment; however, running buffer alone rather than CD59-biotin in running buffer was flowed over the chip the same way.
Interaction analysis: Multicycle kinetic and affinity approach was used for the analysis of peptides interactions with CD59. Two-fold serial dilutions of each peptide were prepared in running buffer and were flowed over both the ligand and reference channel using a flow rate (30 μL/min) at 25 °C. A zero concentration was added to each analyte series and three cycles of buffer were run between analytes to restore the baseline. The obtained sensorgrams were analysed using the embedded Biacore S200 Evaluation software. The data were normalised by subtracting RU values of the reference channel and zero concentration of the analyte series. Kinetic rate constants (kon and koff) were determined by fitting the normalised data using the built-in Kinetic analysis model (non-linear regression with a 1:1 Langmuir binding model), KD values were then calculated from the two rate constants ([…]). The KD values were determined again by fitting the normalised data using the built-in Affinity analysis model (1:1 Langmuir binding model).

biotinylated CD59 = molecular target: T2, biotinylated CD59 (Homo sapiens, UniProt P13987); experiment: mRNA-display cyclic peptide screen against CD59-biotin, NGS abundance after 6th selection round; conditions: for Percentage Seq I: counts normalised by total counts of sample Seq I; for Percentage Seq I / Percentage Seq II: percentage of the pool; for Percentage Seq I / Percentage Seq II / Percentage Average / Percentage of the pool, averaged across the two sequencing samples / Percentage of the pool, Seq I / Percentage of the pool, Seq II: sheet R6; for Percentage Seq II: counts normalised by total counts of sample Seq II; for Percentage Average: percentage of the pool averaged across the two sequencing samples; for Counts Seq I / Counts Seq II: raw NGS counts of peptide sequence; for Counts Seq I: sequencing sample Seq I; for Counts Seq I / Counts Seq II / Counts (raw counts for peptide sequence), Seq I / Counts (raw counts for peptide sequence), Seq II: sheet R6 (6th selection round); for Counts Seq II: sequencing sample Seq II; for Counts (raw counts for peptide sequence), Seq I: NGS sample Seq I; for Counts (raw counts for peptide sequence), Seq II: NGS sample Seq II; for Percentage of the pool, averaged across the two sequencing samples: average of Seq I and Seq II; for Percentage of the pool, Seq I: counts normalised by total counts of NGS sample Seq I; for Percentage of the pool, Seq II: counts normalised by total counts of NGS sample Seq II
T2 construct: Recombinant soluble human CD59 with an additional C-terminal cysteine residue
T2 sequence (P13987 26-102 limits assumed): T1 sequence (P13987 26-102 limits assumed)
Outline: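 Peptide–mRNA fusions were made by in vitro translation with a customised PURE express kit. The kit lacked release factor 1 and methionine and was supplemented with […] initiator tRNA carrying N-chloroacetyl-d-tyrosine. Thioether macrocycles were formed, then enriched and amplified over iterative rounds on CD59-biotin immobilised on streptavidin beads. NGS read counts per sequence were recorded after the 6th selection round.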

[1] = SPR, immobilized CD59, average of three technical replicates ± SEM, read-out: KD (nM) ± SEM
[2] = Ala scan of CP-06, SPR, n = 1, read-out: KD

Compound | Percentage Seq I (biotinylated CD59) | Percentage Seq II (biotinylated CD59) | Percentage Average (biotinylated CD59) | Counts Seq I (biotinylated CD59) | Counts Seq II (biotinylated CD59) | further results
C[C@@H]1NC(=O)[C@H](CO)NC(=O)[C@@H](Cc2ccc(O)cc2)NC(=O)CSC[C@@H](C(N)=O)NC(=O)[C@H](Cc2ccc(O)cc2)NC(=O)[C@H](Cc2ccc(O)cc2)NC(=O)[C@H](CCC(N)=O)NC(=O)[C@H]([C@@H](C)O)NC(=O)[C@H](CCC(N)=O)NC(=O)[C@H](CCCNC(=N)N)NC(=O)[C@H](CC(N)=O)NC(=O)CNC(=O)[C@H](Cc2c[nH]c3ccccc23)NC1=O [CP-13] (HELM PEPTIDE1{[O=C(C[*:3])[*:2]].[dY].S.A.W.G.N.R.Q.T.Q.Y.Y.C.[am]}$PEPTIDE1,PEPTIDE1,1:R3-14:R3$$$V2.0) | – | – | – | – | – | Kd (CD59; [1]): 10.8 ± 0.7 nM
CC(C)[C@@H]1NC(=O)[C@H](CO)NC(=O)[C@H](CO)NC(=O)[C@H](CCCNC(=N)N)NC(=O)[C@H](CC(N)=O)NC(=O)CNC(=O)[C@H](Cc2c[nH]c3ccccc23)NC(=O)[C@H](C)NC(=O)[C@H](Cc2c[nH]c3ccccc23)NC(=O)[C@H](CO)NC(=O)[C@@H](Cc2ccc(O)cc2)NC(=O)CSC[C@@H](C(N)=O)NC(=O)CNC(=O)[C@H](CCCNC(=N)N)NC1=O [CP-06-T4A] (HELM PEPTIDE1{[O=C(C[*:3])[*:2]].[dY].S.W.A.W.G.N.R.S.S.V.R.G.C.[am]}$PEPTIDE1,PEPTIDE1,1:R3-15:R3$$$V2.0) | – | – | – | – | – | Kd (CD59; [2]): 18 nM
CC(C)[C@@H]1NC(=O)[C@H](CO)NC(=O)[C@H](CO)NC(=O)[C@H](CCCNC(=N)N)NC(=O)[C@H](C)NC(=O)CNC(=O)[C@H](Cc2c[nH]c3ccccc23)NC(=O)[C@H]([C@@H](C)O)NC(=O)[C@H](Cc2c[nH]c3ccccc23)NC(=O)[C@H](CO)NC(=O)[C@@H](Cc2ccc(O)cc2)NC(=O)CSC[C@@H](C(N)=O)NC(=O)CNC(=O)[C@H](CCCNC(=N)N)NC1=O [CP-06-N7A] (HELM PEPTIDE1{[O=C(C[*:3])[*:2]].[dY].S.W.T.W.G.A.R.S.S.V.R.G.C.[am]}$PEPTIDE1,PEPTIDE1,1:R3-15:R3$$$V2.0) | – | – | – | – | – | Kd (CD59; [2]): 209 nM
CC(C)[C@@H]1NC(=O)[C@H](C)NC(=O)[C@H](CO)NC(=O)[C@H](CCCNC(=N)N)NC(=O)[C@H](CC(N)=O)NC(=O)CNC(=O)[C@H](Cc2c[nH]c3ccccc23)NC(=O)[C@H]([C@@H](C)O)NC(=O)[C@H](Cc2c[nH]c3ccccc23)NC(=O)[C@H](CO)NC(=O)[C@@H](Cc2ccc(O)cc2)NC(=O)CSC[C@@H](C(N)=O)NC(=O)CNC(=O)[C@H](CCCNC(=N)N)NC1=O [CP-06-S10A] (HELM PEPTIDE1{[O=C(C[*:3])[*:2]].[dY].S.W.T.W.G.N.R.S.A.V.R.G.C.[am]}$PEPTIDE1,PEPTIDE1,1:R3-15:R3$$$V2.0) | – | – | – | – | – | Kd (CD59; [2]): 12 nM
CC(C)[C@@H]1NC(=O)[C@H](Cc2c[nH]cn2)NC(=O)[C@@H](Cc2ccc(O)cc2)NC(=O)CSC[C@@H](C(N)=O)NC(=O)CNC(=O)[C@H](CCCNC(=N)N)NC(=O)[C@H]([C@@H](C)O)NC(=O)[C@H](Cc2ccccc2)NC(=O)[C@H](CO)NC(=O)[C@H](CCCNC(=N)N)NC(=O)[C@H](CC(N)=O)NC(=O)CNC(=O)[C@H](Cc2ccccc2)NC1=O [CP-04] (HELM PEPTIDE1{[O=C(C[*:3])[*:2]].[dY].H.V.F.G.N.R.S.F.T.R.G.C.[am]}$PEPTIDE1,PEPTIDE1,1:R3-14:R3$$$V2.0) | – | – | – | – | – | Kd (CD59; [1]): 11.9 ± 0.3 nM
CC(C)[C@@H]1NC(=O)[C@H](CO)NC(=O)[C@H](CO)NC(=O)[C@H](CCCNC(=N)N)NC(=O)[C@H](CC(N)=O)NC(=O)CNC(=O)[C@H](Cc2c[nH]c3ccccc23)NC(=O)[C@H]([C@@H](C)O)NC(=O)[C@H](Cc2c[nH]c3ccccc23)NC(=O)[C@H](CO)NC(=O)[C@@H](Cc2ccc(O)cc2)NC(=O)CSC[C@@H](C(=O)NCC(=O)N[C@@H](CO)C(=O)NCC(=O)N[C@@H](CO)C(=O)NCC(=O)N[C@@H](CO)C(=O)N[C@@H](CCCCN)C(N)=O)NC(=O)CNC(=O)[C@H](CCCNC(=N)N)NC1=O [CP-06-GSGSGSK] (HELM PEPTIDE1{[O=C(C[*:3])[*:2]].[dY].S.W.T.W.G.N.R.S.S.V.R.G.C.G.S.G.S.G.S.K.[am]}$PEPTIDE1,PEPTIDE1,1:R3-15:R3$$$V2.0) | – | – | – | – | – | Kd (CD59; SPR, Figure S2T, read-out: KD): 18 nM
CC(C)[C@@H]1NC(=O)[C@H](CO)NC(=O)[C@H](CO)NC(=O)[C@H](C)NC(=O)[C@H](CC(N)=O)NC(=O)CNC(=O)[C@H](Cc2c[nH]c3ccccc23)NC(=O)[C@H]([C@@H](C)O)NC(=O)[C@H](Cc2c[nH]c3ccccc23)NC(=O)[C@H](CO)NC(=O)[C@@H](Cc2ccc(O)cc2)NC(=O)CSC[C@@H](C(N)=O)NC(=O)CNC(=O)[C@H](CCCNC(=N)N)NC1=O [CP-06-R8A] (HELM PEPTIDE1{[O=C(C[*:3])[*:2]].[dY].S.W.T.W.G.N.A.S.S.V.R.G.C.[am]}$PEPTIDE1,PEPTIDE1,1:R3-15:R3$$$V2.0) | – | – | – | – | – | Kd (CD59; [2]): 18 nM
SWTWGNRNSVRG | 0.043% | 0.065% | 0.054% | 190 | 28 | –
CFRFRLNATSS | 0.075% | 0.060% | 0.068% | 329 | 26 | –
CYGNSHAS | – | – | – | – | – | Counts (raw counts for peptide sequence), Seq I (biotinylated CD59): 36; Counts (raw counts for peptide sequence), Seq II (biotinylated CD59): 8; Percentage of the pool, averaged across the two sequencing samples (biotinylated CD59): 0.013%; Percentage of the pool, Seq I (biotinylated CD59): 0.008%; Percentage of the pool, Seq II (biotinylated CD59): 0.019%
IARGGRHFSSG | – | – | – | – | – | Counts (raw counts for peptide sequence), Seq I (biotinylated CD59): 46; Counts (raw counts for peptide sequence), Seq II (biotinylated CD59): 4; Percentage of the pool, averaged across the two sequencing samples (biotinylated CD59): 0.010%; Percentage of the pool, Seq I (biotinylated CD59): 0.011%; Percentage of the pool, Seq II (biotinylated CD59): 0.009%
FQRGTRSTSWG | 0.054% | 0.035% | 0.045% | 238 | 15 | –
WILGSRWWTQS | 0.921% | 0.903% | 0.912% | 4031 | 389 | –
IALGDRTFSFG | 0.366% | 0.334% | 0.350% | 1603 | 144 | –
ASWLTAPCYV | 0.032% | 0.019% | 0.025% | 138 | 8 | –
CPRYVSRGFA | – | – | – | – | – | Counts (raw counts for peptide sequence), Seq I (biotinylated CD59): 72; Counts (raw counts for peptide sequence), Seq II (biotinylated CD59): 5; Percentage of the pool, averaged across the two sequencing samples (biotinylated CD59): 0.014%; Percentage of the pool, Seq I (biotinylated CD59): 0.016%; Percentage of the pool, Seq II (biotinylated CD59): 0.012%
FIFGNRNWTFG | 0.021% | 0.021% | 0.021% | 94 | 9 | –
CLRRHVTASDV | 0.040% | 0.023% | 0.031% | 174 | 10 | –
LVTGNRDHTRG | 0.023% | 0.030% | 0.027% | 100 | 13 | –
CYGSRTFIYAWS | 0.026% | 0.019% | 0.022% | 114 | 8 | –
SCSEWRRGTRS | – | – | – | – | – | Counts (raw counts for peptide sequence), Seq I (biotinylated CD59): 43; Counts (raw counts for peptide sequence), Seq II (biotinylated CD59): 4; Percentage of the pool, averaged across the two sequencing samples (biotinylated CD59): 0.010%; Percentage of the pool, Seq I (biotinylated CD59): 0.010%; Percentage of the pool, Seq II (biotinylated CD59): 0.009%
